As a reminder, the Kd is the constant that tells how readily two partners part at equilibrium. High values mean a looser complex, low ones a tighter complex.

Non-standard residues stand in square brackets, D forms with d. No end group written: not given here.

The assay addresses T1, Hexokinase II (HK-II), purified (UniProt P52789 1-917, fluorescently labeled using the NanoTemper protein-labeling Kit BLUE).
T1 construct: hexokinase II (HK-II)
T1 sequence (looked up): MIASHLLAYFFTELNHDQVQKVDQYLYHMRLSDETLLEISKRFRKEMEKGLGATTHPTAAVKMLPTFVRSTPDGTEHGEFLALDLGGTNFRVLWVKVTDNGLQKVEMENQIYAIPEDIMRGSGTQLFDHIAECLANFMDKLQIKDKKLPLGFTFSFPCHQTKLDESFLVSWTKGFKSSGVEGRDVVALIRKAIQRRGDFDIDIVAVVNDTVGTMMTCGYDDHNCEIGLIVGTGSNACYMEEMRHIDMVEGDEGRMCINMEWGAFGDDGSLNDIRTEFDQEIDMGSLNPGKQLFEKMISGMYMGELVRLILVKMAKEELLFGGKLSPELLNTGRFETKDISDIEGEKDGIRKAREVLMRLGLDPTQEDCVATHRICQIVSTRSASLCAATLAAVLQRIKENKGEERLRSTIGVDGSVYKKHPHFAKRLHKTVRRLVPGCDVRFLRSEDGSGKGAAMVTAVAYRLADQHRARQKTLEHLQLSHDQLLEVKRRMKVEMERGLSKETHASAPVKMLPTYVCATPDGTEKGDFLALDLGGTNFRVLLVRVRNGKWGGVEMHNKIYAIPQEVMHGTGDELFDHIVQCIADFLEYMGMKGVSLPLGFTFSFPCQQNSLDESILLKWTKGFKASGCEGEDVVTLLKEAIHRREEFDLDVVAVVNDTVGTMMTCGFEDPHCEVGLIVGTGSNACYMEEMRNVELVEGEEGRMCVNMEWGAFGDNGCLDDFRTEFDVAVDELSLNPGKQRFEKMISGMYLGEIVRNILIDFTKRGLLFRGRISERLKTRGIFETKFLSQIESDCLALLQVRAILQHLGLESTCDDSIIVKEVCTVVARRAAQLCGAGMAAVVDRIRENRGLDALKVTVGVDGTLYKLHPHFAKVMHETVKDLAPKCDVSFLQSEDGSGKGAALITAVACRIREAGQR
Briefly: MST; HK-II (100 nM), fluorescently labelled (NanoTemper Kit BLUE), incubated with Tf-D-LP4 (1-100 μM) for 20 min; MST-grade glass capillaries, Monolith-NT115. The settings on record: both partners purified.

B1: Tf-D-LP4 (peptide)
peptide: HAIYPRHSWTWE[dK][dK][dL][dE][dT][dA][dV][dN][dL][dA][dW][dT][dA]G[dN][dS][dN]KWTWK
notes: L-amino acids; amino acids added to form a loop-shaped tryptophan zipper (N-terminal half); amino acids added to form a loop-shaped tryptophan zipper (C-terminal half); 34 residues in all; the VDAC1-derived stretch is made of D-amino acids, the rest of L-amino acids; also called VDAC1-based peptide; Tf-D-LP4 peptide; source: synthetic peptide (GL Biochem, Shanghai, >95% purity), dissolved in DMSO
In the case of B1, the dissociation constant (Kd) was determined as 16.6 µM.
